Experimental findings from patent US20220185894A1 (F STAR THERAPEUTICS, published 2022) are described below.

For assay [1], the target named is T1, mouse LAG-3 expressed on cells (mouse, UniProt Q61790 24-521).
T1 construct: also called mLAG-3; murine LAG-3 HEK
T1 sequence: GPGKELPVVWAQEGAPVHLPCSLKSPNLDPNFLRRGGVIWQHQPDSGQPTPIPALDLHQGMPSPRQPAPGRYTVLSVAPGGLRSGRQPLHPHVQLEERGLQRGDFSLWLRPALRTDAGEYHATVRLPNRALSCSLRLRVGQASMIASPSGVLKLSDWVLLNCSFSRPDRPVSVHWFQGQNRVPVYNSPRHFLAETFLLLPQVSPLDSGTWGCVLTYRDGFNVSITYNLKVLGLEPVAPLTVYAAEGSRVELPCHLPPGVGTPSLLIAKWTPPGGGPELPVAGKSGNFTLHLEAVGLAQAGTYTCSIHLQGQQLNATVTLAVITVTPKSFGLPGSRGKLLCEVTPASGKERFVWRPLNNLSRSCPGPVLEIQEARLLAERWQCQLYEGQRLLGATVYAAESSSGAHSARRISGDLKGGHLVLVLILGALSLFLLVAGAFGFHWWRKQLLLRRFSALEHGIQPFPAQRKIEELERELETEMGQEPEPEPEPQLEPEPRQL
The assay can be described thus: flow cytometry on HEK cells expressing murine LAG-3. As to the method: The affinity of the mAb² (all containing the LALA mutations) binding to cell expressed murine LAG-3 or murine PD-L1 was determined using flow cytometry. HEK cells expressing murine LAG-3 or murine PD-L1 grown in DMEM (Life Technologies, 61965-026) containing 10% FBS (Life Technologies, 10270-1-6), 100 μg/ml Hygromycin B (Melford Laboratories Ltd, Z2475), 15 μg/ml Blasticidin (Melford Laboratories Ltd, B1105) and 1 μg/ml Doxycyclin (Sigma, D9891) were detached from tissue culture flasks using cell dissociation buffer (Life Technologies, 13151-014) and seeded in V-bottom 96-well plates (Costar, 3897) at 2×10⁵ cells/well. The plates were centrifuged at 1500 rpm for 3 min at 4° C. to pellet the cells. A dilution series of the mAb² (or control mAb) were incubated with the cells in a 60 μl volume for 1 h at 4° C. The plates were washed and secondary antibody (Anti-human Fc-488, Jackson ImmunoResearch, 109-546-098 for mAb² or Anti-Rat IgG (H+L), Alexa Fluor 488, ThermoFisher, A-11006 for anti-LAG-3 control, C9B7W) was diluted 1:1000 in PBS and 50 μl was added to the cells for 30 min at 4° C. (plates were kept in the dark). The plates were washed then cells were resuspended in 50 μl FACS Cell Fix (BD Bioscience, 340181) for 15 minutes, then washed and resuspended in 100 μl PBS containing 1 μg/ml DAPI (Biotium, 40043). The plates were read using Canto II flow cytometer (BD Bioscience). Dead cells were excluded and the fluorescence in the FITC channel (488 nm/530/30) was measured. The data was fit using log (agonist) vs response in GraphPad Prism Software. The plates were read on a BD FACSCanto II cytometer (BD Biosciences) and the data analysed using FlowJo.
On the technique in general: In flow cytometry, cells or beads pass a laser one at a time.

Assay [2] addresses T2, human FcγRI (R&D Systems, 1257-FC) (human, UniProt P12314 16-288).
T2 construct: Bought recombinant protein
Briefly: SPR, Biacore T200; FcγR immobilised, 200 µg/ml injected. As to the method:
(§1) The introduction of the LALA mutation in the CH2 domain of human IgG1 is known to reduce Fc γ receptor binding (Bruhns, P., et al. (2009); and Xu, D. et al. (2000)). […] The human FcγR binding assay was performed on a Biacore T200 instrument (GE Healthcare) using the Fcabs in the mock mAb² format. […] For each immobilized chip a flow cell was left blank for background subtraction. FcγR were immobilized using a concentration of 5 μg/ml in sodium acetate pH5 (ForteBio, 18-1069) and injected at a flow rate of 10 μl/min in 15 second cycles until the required immobilization level was reached.
(§2) The flow cells were regenerated by injecting 10 mM sodium hydroxide (VWR, 28244.262) at a flow rate of 100 μl/min for 30 seconds. The data analysis was performed with BiaEvaluation software version 3.2 RC1 by double referencing against the blank flow cell (without immobilized FcγR) and subtracting a buffer cycle from test mAb².

The target in assay [3] is T3, human FcγRIIIa (R&D Systems, 4325-FC) (human, UniProt P08637 17-208).
T3 construct: Bought recombinant protein
The description is as above. As to the method: as §1, §2

For assay [4], the target named is T4, human FcγRIIa (R&D Systems, 1330-CD) (human, UniProt P12318 36-218, limits assumed).
T4 construct: Bought recombinant protein
T4 sequence (looked up): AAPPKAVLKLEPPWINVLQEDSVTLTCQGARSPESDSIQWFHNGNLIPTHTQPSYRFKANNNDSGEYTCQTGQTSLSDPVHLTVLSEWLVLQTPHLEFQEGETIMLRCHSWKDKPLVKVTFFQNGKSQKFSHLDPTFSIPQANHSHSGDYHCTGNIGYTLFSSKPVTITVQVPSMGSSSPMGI
Briefly: SPR, Biacore T200; FcγR immobilised, 500 µg/ml injected. As to the method: as §1, §2

For assay [5], the target named is T5, human FcγRIIb/c (R&D Systems, 1875-CD) (human, UniProt P31994 46-217).
T5 construct: Bought recombinant protein
T5 sequence (looked up): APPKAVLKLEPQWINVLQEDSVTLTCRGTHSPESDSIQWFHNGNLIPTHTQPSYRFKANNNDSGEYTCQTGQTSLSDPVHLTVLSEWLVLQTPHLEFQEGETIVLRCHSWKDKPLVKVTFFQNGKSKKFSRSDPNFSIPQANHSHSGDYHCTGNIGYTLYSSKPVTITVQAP
The description is as above. As to the method:
as §1, §2

T2 sequence (P12314 16-288 limits assumed): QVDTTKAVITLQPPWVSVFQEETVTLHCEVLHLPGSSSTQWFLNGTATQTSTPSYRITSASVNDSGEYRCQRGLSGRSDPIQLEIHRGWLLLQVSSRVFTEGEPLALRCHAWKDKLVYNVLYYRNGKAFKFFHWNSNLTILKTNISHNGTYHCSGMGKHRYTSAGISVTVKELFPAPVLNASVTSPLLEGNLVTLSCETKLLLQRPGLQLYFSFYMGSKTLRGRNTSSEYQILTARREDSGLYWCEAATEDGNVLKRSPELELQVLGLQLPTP
T3 sequence (P08637 17-208 limits assumed): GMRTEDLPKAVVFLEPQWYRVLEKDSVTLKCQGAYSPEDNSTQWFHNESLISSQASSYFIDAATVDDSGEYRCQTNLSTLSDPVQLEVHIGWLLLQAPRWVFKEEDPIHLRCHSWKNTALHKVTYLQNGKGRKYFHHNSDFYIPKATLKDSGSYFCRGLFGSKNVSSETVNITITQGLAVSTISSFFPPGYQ

B1: anti-mouse LAG-3/FITC mAb2 FS18-7-108-35/4420 comprising LALA mutation (bispecific antibody, human IgG1, kappa, L234A L235A)
heavy: EVKLDETGGGLVQPGRPMKLSCVASGFTFSDYWMNWVRQSPEKGLEWVAQIRNKPYNYETYYSDSVKGRFTISRDDSKSSVYLQMNNLRVEDMGIYYCTGSYYGMDYWGQGTSVTVSSASTKGPSVFPLAPSSKSTSGGTAALGCLVKDYFPEPVTVSWNSGALTSGVHTFPAVLQSSGLYSLSSVVTVPSSSLGTQTYICNVNHKPSNTKVDKKVEPKSCDKTHTCPPCPAPEAAGGPSVFLFPPKPKDTLMISRTPEVTCVVVDVSHEDPEVKFNWYVDGVEVHNAKTKPREEQYNSTYRVVSVLTVLHQDWLNGKEYKCKVSNKALPAPIEKTISKAKGQPREPQVYTLPPSWDEPWGEDVSLTCLVKGFYPSDISVEWESNGQPENNYKTTPPVLDSDGSFFLYSKLTVPFERWMWPDEFSCSVMHEALHNHYTQKSLSLSPG
light: DVVMTQTPLSLPVSLGDQASISCRSSQSLVHSNGNTYLRWYLQKPGQSPKVLIYKVSNRFSGVPDRFSGSGSGTDFTLKISRVEAEDLGVYFCSQSTHVPWTFGGGTKLEIKRTVAAPSVFIFPPSDEQLKSGTASVVCLLNNFYPREAKVQWKVDNALQSGNSQESVTEQDSKDSTYSLSSTLTLSKADYEKHKVYACEVTHQGLSSPVTKSFNRGEC
notes: also called FS18-35/4420
As usually defined, the EC50 is the concentration at which the effect is half-maximal. Lower therefore signals greater potency. B1 showed a half-maximal effective concentration (EC50) in assay [1] of 2.38 nM.

B2: anti-FITC mAb 4420 without LALA mutation (wild-type IgG1) (antibody)
heavy: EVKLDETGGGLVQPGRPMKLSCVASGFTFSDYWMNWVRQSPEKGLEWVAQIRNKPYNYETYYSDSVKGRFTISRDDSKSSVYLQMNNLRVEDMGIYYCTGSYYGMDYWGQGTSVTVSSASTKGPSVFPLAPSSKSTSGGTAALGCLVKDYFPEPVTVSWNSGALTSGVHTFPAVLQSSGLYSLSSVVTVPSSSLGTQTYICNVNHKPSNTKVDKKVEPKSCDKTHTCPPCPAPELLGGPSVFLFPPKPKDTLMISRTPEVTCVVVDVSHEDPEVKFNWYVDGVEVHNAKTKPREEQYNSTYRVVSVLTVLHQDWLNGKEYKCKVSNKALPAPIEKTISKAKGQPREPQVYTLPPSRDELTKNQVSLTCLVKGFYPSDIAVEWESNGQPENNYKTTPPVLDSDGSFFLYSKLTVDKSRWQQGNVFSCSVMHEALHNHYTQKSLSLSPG
light: B1 light
notes: also called mock mAb IgG1; 4420 mAb IgG1
As for B2, the “binding response at end of association (RU)” value in assay [2] was 26 RU; in assay [3], 44 RU; in assay [4], 13 RU; in assay [5], 17.7 RU.

B3: anti-FITC mAb 4420 comprising LALA mutation (antibody, human IgG1, kappa, L234A L235A)
heavy: not shown
light: B1 light
notes: also called mock mAb LALA; 4420 LALA
For B3, the “binding response at end of association (RU)” value in assay [2] is 2 RU; in assay [3] it was 8 RU; in assay [4], -12.7 RU; in assay [5], -9.6 RU.
